From the supplement of paper PMC9170038

Test system: MS2 coat protein
Test: apparent KD of MS2 coat protein; higher = weaker reporter binding
Details: Eterna round: R107
Procedure, shortened: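 Titrations with SNAP-549-labelled MS2 coat protein ran in twofold steps from 0.7 or 1.5 nM to 3 µM, each step taking 0.8–1.5 h at the start and 10–20 min toward the end. The targets were designed RNA switches transcribed on-chip from Illumina sequencing clusters, held in 100 mM Tris-HCl pH 7.5, 80 mM KCl, 4 mM MgCl2, without or with constant ligand. Apparent KD was taken per design as the median of normalised cluster binding-curve fits.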

[1] = input ligand: theophylline 20 uM
[2] = input ligand: tryptophan 2.4 mM
[3] = input ligand: theophylline 2 mM

Row | Sequence | apparent KD of MS2 coat protein (input ligand: arginine 13.2 mM) [µM] | apparent KD of MS2 coat protein [1] [µM] | apparent KD of MS2 coat protein [2] [µM] | apparent KD of MS2 coat protein (input ligand: none) [µM] | apparent KD of MS2 coat protein [3] [µM]
1 | AAUGAUGCGAUCUACAGUCGAGGAUUCGAUACCAGCAACGGGCGUUGCCCUUGGCAGCGAGCUACAUGAGGAUCACCCAUGUUAC [theeternabot_exclusion_MS2_Theo_A_45] | 0.0168 | 0.0255 | 0.0194 | – | –
2 | UGCAUGAUCUGAAGGAGCGUGUAUGAUGAUAACAUGAGGAUCACCCAUGUCGAGACGGUAACACAGGUAGGUCGCAGAUCAUGCU [Arg B SS t4] | 0.0214 | 0.0317 | 0.0247 | 0.0232 | 0.0283
3 | AUCGUACCUGAAGAUACCAGCAUGUGAUCAUAACAUGAGGAUCACCCAUGUAAUCAGUGAUGCCCUUGGCAGCUUGAUCGGUACA [Same State - Theophylline B (Freestyle 12)] | 0.0396 | 0.0413 | 0.0302 | – | –
4 | UAUCCACAUGAGGAUCACCCAUGUAGGGAAGGAGCGGUGAAUGCACCAGGUAGGUCGCCUUGCUGAGGACAGCCGGUGGAUUCGU [Exclusion - Arginine A (Freestyle 26)] | 0.0167 | 0.019 | 0.016 | 0.0122 | 0.023
5 | GGCACCGGGCGAAGGAGCGUGAAGACAUGAGGAUCACCCAUGUAGAGGCCCGGACAGGGUUCGCAGGUAGGUCGCGCGCGGUGCC [#1 Same State - Arginine B Attempt #8 (HarryS)] | 0.0212 | 0.0223 | 0.0169 | 0.0145 | 0.0168
6 | AGCUCAGAGAGUGAUACCAGACUACAUGAGGAUCACCCAUGUUACUUUUAAAUAUCAUGAGUCCCUUGGCAGCACAAGAAGAGCA [JR_ExcTheophyB_Sub016] | 0.0401 | 0.117 | 0.0732 | – | –
7 | UUAAUGGAGCUUUUAUUUACGAUUUCUGAUACCAGUGUUUCAUUUCACCCUUGGCAGCAGUGACAUGAGGAUCACCCAUGUAAUA [JR_Nu_SSTheophyA_Sub021] | 0.0303 | 0.0338 | 0.0259 | – | –
8 | GCUAGGUCUACGGCCGCCACUAGACGUGGGUAAGACAUGAGGAUCACCCAUGUACUACGGGCGAAUAGGACCGGGUAGACCUAGC [SSTB NP+V+V2 #14 Same Structure] | 0.173 | 0.499 | 0.0391 | 0.321 | 0.668
9 | UGUAUGUGAUCUGAUACCAGAGUGAAUAAACGCGAAAGCGCCUGAGGAUCACCCUGGUAACUCCCUUGGCAGCAGAUCGCAUACU | 0.119 | 0.789 | 1.39 | 0.569 | 0.0745
10 | CAGCAACAAUUGGAUACCAGCCAUUACAGGUAUCAUUAUAACAUGAGGAUCACCCAUGUAGGCCCUUGGCAGCCAUUGGUGUAAG [theeternabot_exclusion_MS2_Theo_B_22] | 0.0275 | 0.069 | 0.0405 | – | –
11 | GAUGAUAUUGCAGAUACCAGACACAUGAGGAUCACCCAUGUCUCUGUGAUGUAGGAUUGUGUCCCUUGGCAGCUGCGAUAUCAUC [Chile] | 0.088 | 0.258 | 0.175 | – | –
12 | AAUUCAAGGUUCUUGAUGUAUUAUAUAUUUCGAGGACCGGUACGGCCGCCACUCGUUAAUUACAUGAGGAUCACCCAUGUUAGCU [JR_ExcTryptoA_Sub010] | 0.0142 | 0.016 | – | – | 0.0172
13 | AAUAACUUGAGGAUCACCCAAGUAAAAGAUACCAGAGUGAUGAUCCUCCCUUGGCAGCUUAACGCUGAUUGAUUACAAUCAGCGA | 0.0632 | 0.182 | 0.0458 | 0.0623 | 0.121
14 | AGUAAUCUAACAGAUACCAGACGGUAUAUAACAUGAGGAUCACCCAUGUCUUGGGUGUACGUCCCUUGGCAGCUGAAAAUGAUAA [JR_SSTheophyB_Sub001] | 0.157 | 0.551 | 0.756 | – | –
15 | AGCACUGUGACGGCCGCCACUACAUAAAUAGGGUGGUCAGGUUCAUUACAUGAGGAUCACCCAUGUAGGACCGGGUCUCAGUGCA [Omei Trp Exc B A v7] | 0.01 | 0.0119 | – | – | 0.011
16 | AUGGACGGCGAUCUGGGUUUACCAGAUCGGCGAGGACCGGUACGGCCGCCACUCGUGUUUAUUUAACAUGAGGAUCACCCAUGUA [SSTA #2] | 0.0624 | 0.163 | 0.0213 | 0.0976 | 0.139
17 | AGGACCAGGAACAUGGGUGAACUGGUCCAACGAGGACCGGUACGGCCGCCACUCGAAUAAACAUGAGGAUCACCCAUGUAAUAAU [T''-M-T'-T-MS2] | 0.0833 | 0.296 | 0.21 | 0.327 | 0.442
18 | AUACAUGAGGAUCACCCAUGUUAUAGUGAAGGAGCGACAUUUAGGUCAGGUAGGUCGCACUAUUGAAUUAUUAUCCUUAUUUCUU [JR_ExcArginiA_Sub020] | 0.0161 | 0.022 | 0.0157 | 0.014 | 0.0155
19 | GGCAGUCAUAGGAGGGCAAAUAUACUCGAAGGAGCGUCAUAGUAGGCAGGUAGGUCGCGAGACAUGAGGAUCACCCAUGUAGAGA [wwzmullin] | 0.0202 | 0.106 | 0.0905 | 0.0669 | 0.125

Row | Sequence | apparent KD of MS2 coat protein (input ligand: arginine 13.2 mM) [µM] | apparent KD of MS2 coat protein [1] [µM] | apparent KD of MS2 coat protein [2] [µM] | apparent KD of MS2 coat protein (input ligand: none) [µM] | apparent KD of MS2 coat protein [3] [µM]
20 | GCCUAGCAUCGAAGGAGCGCUGGUGAAACUGACUAAUAUACAUGAGGAUCACCCAUGUGCUAGCAGGUAGGUCGCGAUGCUAGGC [SSAB NP+V+V2 #11] | 0.0204 | 0.0272 | 0.0211 | 0.0217 | 0.0255
21 | AUACAUGAGGAUCACCCAUGUCAUACAGAAGGAGCGUCAUAUUAGACAGGUAGGUCGCUGUAAUUUUUAUUAUUCUUUAUGUAUU [JR_Nu_ExcArginiA_Sub026] | 0.0219 | 0.0335 | 0.0261 | 0.026 | 0.0269
22 | ACAUCCAGGUUAAUCGUGGGCAUGGUCGAUACCAGUAUUUUAAUCUACCCUUGGCAGCGACAUGAGGAUCACCCAUGUGCGAUGA [XTheo A #13] | 0.0201 | 0.0337 | 0.0258 | – | –
23 | GGCACAUAGUCGGCCGCCACUAGAAUAAGAAGGGAAAACAUGAGGAUCACCCAUGUAAAAGGGACUAGGACCGGGACUAUGUGCC [Shrew] | 0.0145 | 0.0182 | – | – | 0.017
24 | AGAGCAUUGACGGCCGCCACUCAUGUCACAUGAGGAUCACCCAUGUGAUGGGUGAUCGCCCGGUUGAGGACCGGGUCAAUGCUCA [Omei Tryp SS B v2] | 0.0429 | 0.123 | – | – | 0.121
25 | ACCUCACUCUCUGAUACCAGCUAAUAACAUGAGGAUCACCCAUGUCAGACUUGUAUUGAUAGCCCUUGGCAGCAGAGGUAACUGC [Theo B Ex t2] | 0.00942 | 0.0119 | 0.0106 | – | –
26 | ACCUCAUGUAGAAGGAGCGUCAGAAGCUACAGACAUGAGGAUCACCCAUGUUAGUUGAUCUGACAGGUAGGUCGCUACAGCAGGA [#23 Same State - Arginine B] | 0.0241 | 0.0439 | 0.0318 | 0.0323 | 0.0356
27 | CUCCCGUGAGCGGCCGCCACUGGAGGCCUCGCGCGACAUGAGGAUCACCCAUGUUGGCCCGGCCUCAGGACCGGGUUCGCGUGAG [Same State - Tryptophan B Attempt #6 (HarryS)] | 0.00747 | 0.0174 | 0.0084 | 0.00918 | 0.0127
28 | CGUGGUUGAGAUGGGCCUCUGAUAAGUCUGCGAGGACCGGUACGGCCGCCACUCGAGGACAUGAGGAUCACCCAUGUACUUCGCG [Vequar] | 0.0411 | 0.139 | 0.0192 | 0.0308 | 0.0505
29 | GAGGCACGGUCGGCCGCCACUACAGCAGUGGUCCGCCAAGCGAGGUACAUGAGGAUCACCCAUGUUAGGACCGGGACCUGUUUUU [theeternabot_exclusion_MS2_Trp_B_27] | 0.0202 | 0.0246 | – | – | 0.0255
30 | AUCGCACCUGGUGAUACCAGCGUUUGCUCGUGACAUGAGGAUCACCCAUGUGGCCAGUGAUGCCCUUGGCAGCAUGGUCGGUGCA [Same State - Theophylline B (Freestyle 26)] | 0.0617 | 0.376 | 0.296 | – | –
31 | GUGCGGUUUGAUGAUACCAGAUGUGGUGGGAACAUGAGGAUCACCCAUGUUGUGAAACAGGUCCCUUGGCAGCAUGAGUGAGCUU [TheoB-ms2@32-1] | 0.0973 | 0.255 | 0.0555 | 0.103 | 0.29
32 | GCUGCUUUGGGAAGGAGCGCUGUGGUAGUGUGGCGGACAUGAGGAUCACCCAUGUGCCUGCAGCAGGUAGGUCGCUUAGGGCAGC [EAP NP+V+V2 #16] | 0.0376 | 0.0379 | 0.0365 | 0.0245 | 0.0401
33 | GACUAUAUGAUAUGUCAGAAAUCCUCGAAACGAGGACCGGUACGGCCGCCACUCGAGUGAUAAACAUGAGGAUCACCCAUGUAAA [Tryp A Ex t2] | 0.021 | 0.028 | – | – | 0.0277
34 | UGUAUGUGAUCUGAUACCAGCGAUGAUAACCUGAGGAUCACCCUGGUAAGGCGAAAGCCUCGCCCUUGGCAGCAGAUCGCAUACU | 0.407 | 0.273 | 0.8 | 0.583 | 0.024
35 | AUAACAUGAGGAUCACCCAUGUAAGCUGAAGGAGCGCUGGAAACAGCAGGUAGGUCGCAGCUACCUACCACCUCAUGAGGUAGGU [(M1)-(M2)-(Arg1)-(Arg2)-(A)'-(M)'-(A)''_Design6] | 0.0164 | 0.0244 | 0.019 | 0.0185 | 0.0259
36 | AGCGAUAUGCAUGAUACCAGCUACAUGAGGAUCACCCAUGUACGUCAGUAAUGACUGUGUAGCCCUUGGCAGCAUAGAGCAUGUA [Exclusion - Theophylline B (Freestyle 13)] | 0.0217 | 0.0354 | 0.0227 | – | –
37 | AGACAUGAGGAUCACCCAUGUAGUACGGAUACCAGAUCCAGAUGCGUCCCUUGGCAGCUGUGGUACAGCGUUACAUCGCUCGUAG [Exclusion - Theophylline A (Freestyle 23)] | 0.016 | 0.0299 | 0.0186 | – | –
38 | AAUUUAAACGGAAGGAGCGUCACUUAAUAUCAACAUGAGGAUCACCCAUGUACGGGUUGUAGACAGGUAGGUCGCCGUCAUUUGA [#15 Same State - Arginine B] | 0.0494 | 0.0745 | 0.0535 | 0.0479 | 0.0645
